According to patent publication US20240124576A1:

Experiments:
Irrelevant antigen = assay: flow cytometry of yeast-displayed scFv clone, 30 nM irrelevant antigen, Streptavidin-PE
[1] = molecular target: Monkey S-15-Fc (Acrobiosystems, Cat. No. SG5-C5253) (monkey); assay: flow cytometry of yeast-displayed scFv clone, 10 nM Monkey S-15-Fc, M&H Fc-APC
[2] = molecular target: murine S-15 Biotin (Acrobiosystems, Cat. No. SG5-M52H7, biotinylated) (murine); assay: flow cytometry of yeast-displayed scFv clone, 30 nM Murine S-15 Biotin, Streptavidin-PE
[3] = molecular target: T1, biotinylated human Siglec-15 protein (Acrobiosystems, Cat. No. SG5-H82E9) (human) (UniProt Q6ZMC9); assay: flow cytometry of yeast-displayed scFv clone, 30 nM Human S-15 Biotin, Streptavidin-PE
T1 sequence (biotinylated, looked up): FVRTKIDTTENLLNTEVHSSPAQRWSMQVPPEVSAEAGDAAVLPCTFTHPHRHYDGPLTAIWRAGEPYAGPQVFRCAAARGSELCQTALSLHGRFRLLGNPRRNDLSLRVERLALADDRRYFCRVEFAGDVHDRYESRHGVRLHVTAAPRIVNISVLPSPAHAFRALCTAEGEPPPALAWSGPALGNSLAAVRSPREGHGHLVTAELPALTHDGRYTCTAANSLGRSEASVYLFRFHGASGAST

Irrelevant antigen-binding signal (Irrelevant antigen): 12.5 MFI
Monkey S-15 binding signal [1]: 588 MFI
Murine S-15 binding signal [2]: 286 MFI
Human S-15 binding signal [3]: 666 MFI
B1: Ab0 (clone Y14C4), single-chain antibody displayed on yeast (scFv, part only; not given: linker, domain order, tag, anchor, V domains shown, not shown: another chain or arm of the molecule; large carriers; small tags and cut ends)
VH: EVQLLESGGGLVQPGGSLRLSCAASGFTFSSYAMSWVRQAPGKGLEWVSTISGGGGSTYYADSVKGRFTISRDNSKNTLYLQMNSLRAEDTAVYYCAKAIGSSWYSDAFDLWGQGTMVTVSS
VL: DIQMTQSPSSVSASVGDRVTITCRASQDISSWLAWYQQKPGKAPKLLIYVASSLQSGVPSRFSGSGSGTDFTLTISSLQPEDFATYYCQQSYSIPYTFGQGTKLEIK
